Substrate in series [1]: CN1CC=C(c2cccn2C)CC1
As to the kind of experiment: Spectrophotometric MAO-A assay with MMTP as substrate. The series is classed as biochemical, human. The note with it: other: MMTP as substrate; 37.0 °C.

Substrate in series [2]: CN1CC=C(c2cccn2C)CC1
The series can be described thus: Spectrophotometric MAO-B assay with MMTP as substrate. The series is classed as biochemical, human. The note with it: other: MMTP as substrate; 37.0 °C.

For 2 proteins, Km results are on record in article PMC6442233, “SAR and molecular mechanism studies of monoamine oxidase inhibition by selected chalcone analogs” (Journal of Enzyme Inhibition and Medicinal Chemistry, 2019).

B1: human MAO-A (Homo sapiens) (protein)
chain: MENQEKASIAGHMFDVVVIGGGISGLSAAKLLTEYGVSVLVLEARDRVGGRTYTIRNEHVDYVDVGGAYVGPTQNRILRLSKELGIETYKVNVSERLVQYVKGKTYPFRGAFPPVWNPIAYLDYNNLWRTIDNMGKEIPTDAPWEAQHADKWDKMTMKELIDKICWTKTARRFAYLFVNINVTSEPHEVSALWFLWYVKQCGGTTRIFSVTNGGQERKFVGGSGQVSERIMDLLGDQVKLNHPVTHVDQSSDNIIIETLNHEHYECKYVINAIPPTLTAKIHFRPELPAERNQLIQRLPMGAVIKCMMYYKEAFWKKKDYCGCMIIEDEDAPISITLDDTKPDGSLPAIMGFILARKADRLAKLHKEIRKKKICELYAKVLGSQEALHPVHYEEKNWCEEQYSGGCYTAYFPPGIMTQYGRVIRQPVGRIFFAGTETATKWSGYMEGAVEAGERAAREVLNGLGKVTEKDIWVQEPESKDVPAVEITHTFWERNLPSVSGLLKIIGFSTSVTALGFVLYKYKLLPRS
notes: purchased Sigma-Aldrich
By Km is commonly meant the concentration of substrate that gives half-maximal velocity. Turning to B1, in series [1], the Km stood at 88 µM.

B2: human MAO-B (Homo sapiens) (protein)
chain: MSNKCDVVVVGGGISGMAAAKLLHDSGLNVVVLEARDRVGGRTYTLRNQKVKYVDLGGSYVGPTQNRILRLAKELGLETYKVNEVERLIHHVKGKSYPFRGPFPPVWNPITYLDHNNFWRTMDDMGREIPSDAPWKAPLAEEWDNMTMKELLDKLCWTESAKQLATLFVNLCVTAETHEVSALWFLWYVKQCGGTTRIISTTNGGQERKFVGGSGQVSERIMDLLGDRVKLERPVIYIDQTRENVLVETLNHEMYEAKYVISAIPPTLGMKIHFNPPLPMMRNQMITRVPLGSVIKCIVYYKEPFWRKKDYCGTMIIDGEEAPVAYTLDDTKPEGNYAAIMGFILAHKARKLARLTKEERLKKLCELYAKVLGSLEALEPVHYEEKNWCEEQYSGGCYTTYFPPGILTQYGRVLRQPVDRIYFAGTETATHWSGYMEGAVEAGERAAREILHAMGKIPEDEIWQSEPESVDVPAQPITTTFLERHLPSVPGLLRLIGLTTIFSATALGFLAHKRGLLVRV
notes: purchased Sigma-Aldrich
For B2, the Km in series [2] came to 101 µM.
